According to article PMC4934754, “HCF1 and OCT2 Cooperate with EBNA1 To Enhance OriP-Dependent Transcription and Episome Maintenance of Latent Epstein-Barr Virus”:

T1: His-OCT2 DBD (HTRF) (UniProt P09086-3 175-345)
T1 sequence: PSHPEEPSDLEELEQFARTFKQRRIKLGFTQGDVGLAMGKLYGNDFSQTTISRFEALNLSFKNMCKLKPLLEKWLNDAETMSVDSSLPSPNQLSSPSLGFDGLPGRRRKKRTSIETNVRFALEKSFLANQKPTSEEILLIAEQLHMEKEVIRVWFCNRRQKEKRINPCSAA

T2: OCT2 DBD (UniProt P09086-3 175-345)
T2 sequence: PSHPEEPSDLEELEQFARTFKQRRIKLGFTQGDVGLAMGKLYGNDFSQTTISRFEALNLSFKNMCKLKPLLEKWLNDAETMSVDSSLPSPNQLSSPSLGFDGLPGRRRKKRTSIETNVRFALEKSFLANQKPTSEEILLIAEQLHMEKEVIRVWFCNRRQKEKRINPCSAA


Tests used:
[1] = molecular target: T3, EBNA1 DBD;OCT2 DBD (Epstein-Barr virus;human?, UniProt P03211;P09086-3 459-607;175-345, |); experiment: HTRF; 15 nM His-EBNA1, 2.5-40 nM unlabeled OCT2; OCT2 stimulates EBNA1 binding; Buffer not given (EMSA as in cited ref. 32; HTRF and ALPHA in similar conditions; 1 h incubation for HTRF); settings: protein: recombinant;recombinant; tags: His;none (His-SUMO removed by SUMO protease); copies: 1;1; label: 5' biotin, streptavidin Eu3+ cryptate
[2] = molecular target: T1, His-OCT2 DBD (HTRF); experiment: HTRF; 0-80 nM OCT2; Buffer not given (EMSA as in cited ref. 32; HTRF and ALPHA in similar conditions; 1 h incubation for HTRF); settings: protein: recombinant; label: 5' biotin, streptavidin Eu3+ cryptate
[3] = molecular target: EBNA1 DBD (Epstein-Barr virus, UniProt P03211 459-607); experiment: EMSA; no OCT2; low nanomolar affinity, two major species; Buffer not given (EMSA as in cited ref. 32; HTRF and ALPHA in similar conditions; 1 h incubation for HTRF); settings: protein: recombinant; tags: His; label: 32P
[4] = molecular target: T3, EBNA1 DBD;OCT2 DBD; experiment: EMSA; EBNA1 titration with 40 nM OCT2 or OCT2 titration with 15 nM EBNA1; saturated complex distinct from EBNA1 alone; Buffer not given (EMSA as in cited ref. 32; HTRF and ALPHA in similar conditions; 1 h incubation for HTRF); settings: protein: recombinant;recombinant; tags: His;none (His-SUMO removed by SUMO protease); copies: 1;1; label: 32P
[5] = molecular target: T2, OCT2 DBD; experiment: EMSA; single major species at 40 nM OCT2, larger complex at higher concentration; Buffer not given (EMSA as in cited ref. 32; HTRF and ALPHA in similar conditions; 1 h incubation for HTRF); settings: protein: recombinant; tags: none (His-SUMO removed by SUMO protease); label: 32P

T3 sequence (P03211 459-607, one chain of several): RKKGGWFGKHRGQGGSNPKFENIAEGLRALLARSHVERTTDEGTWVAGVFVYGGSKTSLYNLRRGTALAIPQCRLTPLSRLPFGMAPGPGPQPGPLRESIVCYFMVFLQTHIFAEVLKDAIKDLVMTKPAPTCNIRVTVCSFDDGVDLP
Sequence of EBNA1 DBD (P03211 459-607): as the sequence (P03211 459-607, one chain of several) above

Binder	binding result [1]	binding result [2]	binding result [3]	binding result [4]	binding result [5]
2xFR (60 bp), biotin (dsDNA) DNA 1: ATTAGGATAGCCTATGCTACCCAGATATAGATTAGGATAGCATATGCTACCCAGATATAG DNA 2: CTATATCTGGGTAGCATATGCTATCCTAATCTATATCTGGGTAGCATAGGCTATCCTAAT	binds	binds	–	–	–
2xFR (60-mer), 32P (dsDNA) DNA 1: ATTAGGATAGCCTATGCTACCCAGATATAGATTAGGATAGCATATGCTACCCAGATATAG DNA 2: CTATATCTGGGTAGCATATGCTATCCTAATCTATATCTGGGTAGCATAGGCTATCCTAAT	–	–	binds	binds	binds
